{"source": "patent US20140256786", "molecules": {"B1": {"name": "2xGST-dPINK1 fusion protein with GST fused at both the N- and C-terminus of dPINK1 (protein)", "chain": "KEDELEGVCWEIREAASRLQNAWNHDEISDTLDSKFTIDDLEIGPPIAKGCAAVVYAADFKKDVASDGASLHTDAQPQATPAFAPNSWSTHEMMSPLQNMSRFVHNFGGSVDNVFHYSQPSAASDFVGAQSREQDQRHHEQQQHQNQEQEQHQNQEPSSSAFNVTSPANSNINSSVDSYPLALKMMFNYDIQSNALSILRAMYKETVPARQRGMNEAADEWERLLQNQTVHLPRHPNIVCMFGFFCDEVRNFPDGHLLYPVAQPQRINPQGYGRNMSLYLLMKRYDHSLRGLLDSQDLSTRNRILLLAQMLEAVNHLSRHGVAHRDLKSDNVLIELQDDAAPVLVLSDFGCCLADKVHGLRLPYVSHDVDKGGNAALMAPEIFNTMPGPFAVLNYGKADLWACGALAYEIFGNRNPFYSSSGGMARERGEMTLSLRNSDYRQDQLPPMSDACPPLLQQLVYNILNPNPSKRVSPDIAANVVQLFLWAPSNWLKAGGMPNSPEILQWLLSLTTKIMCEGRPQMGAGLMPVASCGNRRAYVEYLLICSFLARARLRRIRGALNWIQNVVA"}, "B2": {"name": "Drosophila PINK1 protein affinity purified from HEK293 cells by immunoprecipitation (protein)", "chain": "MSVRLLTVRLIKHGRYILRSYCKRDIHANILDQNQLKTRSKRGFPLPSTAANVLRTTPQQAAKSVVNVVPRTINSPSGSPFNGSGSSPTSSSGIFRVGQHARKLFIDNILSRVTTTYSEDLRQRATRKLFFGDSAPFFALIGVSLASGSGVLSKEDELEGVCWEIREAASRLQNAWNHDEISDTLDSKFTIDDLEIGPPIAKGCAAVVYAADFKKDVASDGASLHTDAQPQATPAFAPNSWSTHEMMSPLQNMSRFVHNFGGSVDNVFHYSQPSAASDFVGAQSREQDQRHHEQQQHQNQEQEQHQNQEPSSSAFNVTSPANSNINSSVDSYPLALKMMFNYDIQSNALSILRAMYKETVPARQRGMNEAADEWERLLQNQTVHLPRHPNIVCMFGFFCDEVRNFPDGHLLYPVAQPQRINPQGYGRNMSLYLLMKRYDHSLRGLLDSQDLSTRNRILLLAQMLEAVNHLSRHGVAHRDLKSDNVLIELQDDAAPVLVLSDFGCCLADKVHGLRLPYVSHDVDKGGNAALMAPEIFNTMPGPFAVLNYGKADLWACGALAYEIFGNRNPFYSSSGGMARERGEMTLSLRNSDYRQDQLPPMSDACPPLLQQLVYNILNPNPSKRVSPDIAANVVQLFLWAPSNWLKAGGMPNSPEILQWLLSLTTKIMCEGRPQMGAGLMPVASCGNRRAYVEYLLICSFLARARLRRIRGALNWIQNVVA"}}, "key": {"[1]": {"tested_on": "GST-dMiroΔTM fusion protein (amino acids 1-634 of the full-length dMiro protein, transmembrane domain deleted) [GST: P08515]"}, "[2]": {"target": "GST-dMiroΔTM fusion protein (amino acids 1-634 of the full-length dMiro protein, transmembrane domain deleted) [GST: P08515]", "remark": "listed apart in the source"}}, "note": "Like-named read-outs stand apart in the source and are kept apart here.", "data": [{"molecule": "mammalian PINK1 protein affinity purified from HEK293 cells by immunoprecipitation", "values": [{"measurement": "in vitro kinase assay", "setting": "[1]", "result": "also failed to phosphorylate GST-dMiroΔTM in these assays"}]}, {"molecule": "B1", "values": [{"measurement": "in vitro kinase assay (P32 autoradiography)", "setting": "[2]", "result": "failed to show phosphorylation of GST-dMiroΔTM"}]}, {"molecule": "B2", "values": [{"measurement": "in vitro kinase assay", "setting": "[2]", "result": "also failed to phosphorylate GST-dMiroΔTM in these assays"}]}]}
